Data reported in patent US20260015399A1 (Boehringer Ingelheim, published 2026).
*1 amine or outer side, *2 acyl side, *3 side chain or, on linkers, in order; H or OH if unused. Side-chain parts run from the residue outwards. The star is where a group is joined. C18 diacid = O=C(O)CCCCCCCCCCCCCCCCC(=O)*; γGlu = O=C(O)[C@H](CCC(=O)[*:2])N[*:1]; Isovaleryl = CC(C)CC(=O)*; Ahx = NCCCCCC(=O)O

T1: human NPY2 receptor (human, UniProt P49146 1-381)
T1 construct: whole, on cells; also called hNPY2-R; hNPY2R
T1 sequence (looked up): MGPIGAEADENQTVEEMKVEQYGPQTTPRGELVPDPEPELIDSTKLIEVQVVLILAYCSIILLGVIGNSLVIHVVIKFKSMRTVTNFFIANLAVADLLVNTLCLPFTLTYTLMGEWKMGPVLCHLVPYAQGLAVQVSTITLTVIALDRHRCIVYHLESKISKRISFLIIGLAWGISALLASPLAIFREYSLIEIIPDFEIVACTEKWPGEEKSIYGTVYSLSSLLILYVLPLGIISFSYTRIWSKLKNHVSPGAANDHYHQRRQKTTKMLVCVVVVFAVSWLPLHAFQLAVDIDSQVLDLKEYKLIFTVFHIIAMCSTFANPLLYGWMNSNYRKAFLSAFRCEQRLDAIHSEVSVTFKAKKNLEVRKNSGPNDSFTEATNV

B1: Compound 190 (peptide)
peptide: Isovaleryl-APAK([Ahx-γGlu-C18 diacid])PEEDATPEELQRYYISLRHYYNWLTRQRY-NH2
SMILES: CC[C@H](C)[C@H](NC(=O)[C@H](Cc1ccc(O)cc1)NC(=O)[C@H](Cc1ccc(O)cc1)NC(=O)[C@H](CCCNC(=N)N)NC(=O)[C@H](CCC(N)=O)NC(=O)[C@H](CC(C)C)NC(=O)[C@H](CCC(=O)O)NC(=O)[C@H](CCC(=O)O)NC(=O)[C@@H]1CCCN1C(=O)[C@@H](NC(=O)[C@H](C)NC(=O)[C@H](CC(=O)O)NC(=O)[C@H](CCC(=O)O)NC(=O)[C@H](CCC(=O)O)NC(=O)[C@@H]1CCCN1C(=O)[C@H](CCCCNC(=O)CCCCCNC(=O)CC[C@H](NC(=O)CCCCCCCCCCCCCCCCC(=O)O)C(=O)O)NC(=O)[C@H](C)NC(=O)[C@@H]1CCCN1C(=O)[C@H](C)NC(=O)CC(C)C)[C@@H](C)O)C(=O)N[C@@H](CO)C(=O)N[C@@H](CC(C)C)C(=O)N[C@@H](CCCNC(=N)N)C(=O)N[C@@H](Cc1c[nH]cn1)C(=O)N[C@@H](Cc1ccc(O)cc1)C(=O)N[C@@H](Cc1ccc(O)cc1)C(=O)N[C@@H](CC(N)=O)C(=O)N[C@@H](Cc1c[nH]c2ccccc12)C(=O)N[C@@H](CC(C)C)C(=O)N[C@H](C(=O)N[C@@H](CCCNC(=N)N)C(=O)N[C@@H](CCC(N)=O)C(=O)N[C@@H](CCCNC(=N)N)C(=O)N[C@@H](Cc1ccc(O)cc1)C(N)=O)[C@@H](C)O
B2: Compound 192 (peptide)
peptide: Isovaleryl-APEK([Ahx-γGlu-C18 diacid])PEAPASPEELQRYYVSLRHYYNWLTRQRY-NH2
SMILES: CC(C)CC(=O)N[C@@H](C)C(=O)N1CCC[C@H]1C(=O)N[C@@H](CCC(=O)O)C(=O)N[C@@H](CCCCNC(=O)CCCCCNC(=O)CC[C@H](NC(=O)CCCCCCCCCCCCCCCCC(=O)O)C(=O)O)C(=O)N1CCC[C@H]1C(=O)N[C@@H](CCC(=O)O)C(=O)N[C@@H](C)C(=O)N1CCC[C@H]1C(=O)N[C@@H](C)C(=O)N[C@@H](CO)C(=O)N1CCC[C@H]1C(=O)N[C@@H](CCC(=O)O)C(=O)N[C@@H](CCC(=O)O)C(=O)N[C@@H](CC(C)C)C(=O)N[C@@H](CCC(N)=O)C(=O)N[C@@H](CCCNC(=N)N)C(=O)N[C@@H](Cc1ccc(O)cc1)C(=O)N[C@@H](Cc1ccc(O)cc1)C(=O)N[C@H](C(=O)N[C@@H](CO)C(=O)N[C@@H](CC(C)C)C(=O)N[C@@H](CCCNC(=N)N)C(=O)N[C@@H](Cc1c[nH]cn1)C(=O)N[C@@H](Cc1ccc(O)cc1)C(=O)N[C@@H](Cc1ccc(O)cc1)C(=O)N[C@@H](CC(N)=O)C(=O)N[C@@H](Cc1c[nH]c2ccccc12)C(=O)N[C@@H](CC(C)C)C(=O)N[C@H](C(=O)N[C@@H](CCCNC(=N)N)C(=O)N[C@@H](CCC(N)=O)C(=O)N[C@@H](CCCNC(=N)N)C(=O)N[C@@H](Cc1ccc(O)cc1)C(N)=O)[C@@H](C)O)C(C)C
B3: Compound 198 (peptide)
peptide: Isovaleryl-APAK([Ahx-γGlu-C18 diacid])PEADAEPEEIQRYYVSLRHYYNWLTRQRY-NH2
SMILES: CC[C@H](C)[C@H](NC(=O)[C@H](CCC(=O)O)NC(=O)[C@H](CCC(=O)O)NC(=O)[C@@H]1CCCN1C(=O)[C@H](CCC(=O)O)NC(=O)[C@H](C)NC(=O)[C@H](CC(=O)O)NC(=O)[C@H](C)NC(=O)[C@H](CCC(=O)O)NC(=O)[C@@H]1CCCN1C(=O)[C@H](CCCCNC(=O)CCCCCNC(=O)CC[C@H](NC(=O)CCCCCCCCCCCCCCCCC(=O)O)C(=O)O)NC(=O)[C@H](C)NC(=O)[C@@H]1CCCN1C(=O)[C@H](C)NC(=O)CC(C)C)C(=O)N[C@@H](CCC(N)=O)C(=O)N[C@@H](CCCNC(=N)N)C(=O)N[C@@H](Cc1ccc(O)cc1)C(=O)N[C@@H](Cc1ccc(O)cc1)C(=O)N[C@H](C(=O)N[C@@H](CO)C(=O)N[C@@H](CC(C)C)C(=O)N[C@@H](CCCNC(=N)N)C(=O)N[C@@H](Cc1c[nH]cn1)C(=O)N[C@@H](Cc1ccc(O)cc1)C(=O)N[C@@H](Cc1ccc(O)cc1)C(=O)N[C@@H](CC(N)=O)C(=O)N[C@@H](Cc1c[nH]c2ccccc12)C(=O)N[C@@H](CC(C)C)C(=O)N[C@H](C(=O)N[C@@H](CCCNC(=N)N)C(=O)N[C@@H](CCC(N)=O)C(=O)N[C@@H](CCCNC(=N)N)C(=O)N[C@@H](Cc1ccc(O)cc1)C(N)=O)[C@@H](C)O)C(C)C
B4: Compound 191 (peptide)
peptide: Isovaleryl-APEK([Ahx-γGlu-C18 diacid])PEEDATPEEIQRYYESLRHYYNWLTRQRY-NH2
SMILES: CC[C@H](C)[C@H](NC(=O)[C@H](CCC(=O)O)NC(=O)[C@H](CCC(=O)O)NC(=O)[C@@H]1CCCN1C(=O)[C@@H](NC(=O)[C@H](C)NC(=O)[C@H](CC(=O)O)NC(=O)[C@H](CCC(=O)O)NC(=O)[C@H](CCC(=O)O)NC(=O)[C@@H]1CCCN1C(=O)[C@H](CCCCNC(=O)CCCCCNC(=O)CC[C@H](NC(=O)CCCCCCCCCCCCCCCCC(=O)O)C(=O)O)NC(=O)[C@H](CCC(=O)O)NC(=O)[C@@H]1CCCN1C(=O)[C@H](C)NC(=O)CC(C)C)[C@@H](C)O)C(=O)N[C@@H](CCC(N)=O)C(=O)N[C@@H](CCCNC(=N)N)C(=O)N[C@@H](Cc1ccc(O)cc1)C(=O)N[C@@H](Cc1ccc(O)cc1)C(=O)N[C@@H](CCC(=O)O)C(=O)N[C@@H](CO)C(=O)N[C@@H](CC(C)C)C(=O)N[C@@H](CCCNC(=N)N)C(=O)N[C@@H](Cc1c[nH]cn1)C(=O)N[C@@H](Cc1ccc(O)cc1)C(=O)N[C@@H](Cc1ccc(O)cc1)C(=O)N[C@@H](CC(N)=O)C(=O)N[C@@H](Cc1c[nH]c2ccccc12)C(=O)N[C@@H](CC(C)C)C(=O)N[C@H](C(=O)N[C@@H](CCCNC(=N)N)C(=O)N[C@@H](CCC(N)=O)C(=O)N[C@@H](CCCNC(=N)N)C(=O)N[C@@H](Cc1ccc(O)cc1)C(N)=O)[C@@H](C)O
B5: Compound 199 (peptide)
peptide: Isovaleryl-APAK([Ahx-γGlu-C18 diacid])PEEEASPEELQRYYVSLRHYYNWLTRQRY-NH2
SMILES: CC(C)CC(=O)N[C@@H](C)C(=O)N1CCC[C@H]1C(=O)N[C@@H](C)C(=O)N[C@@H](CCCCNC(=O)CCCCCNC(=O)CC[C@H](NC(=O)CCCCCCCCCCCCCCCCC(=O)O)C(=O)O)C(=O)N1CCC[C@H]1C(=O)N[C@@H](CCC(=O)O)C(=O)N[C@@H](CCC(=O)O)C(=O)N[C@@H](CCC(=O)O)C(=O)N[C@@H](C)C(=O)N[C@@H](CO)C(=O)N1CCC[C@H]1C(=O)N[C@@H](CCC(=O)O)C(=O)N[C@@H](CCC(=O)O)C(=O)N[C@@H](CC(C)C)C(=O)N[C@@H](CCC(N)=O)C(=O)N[C@@H](CCCNC(=N)N)C(=O)N[C@@H](Cc1ccc(O)cc1)C(=O)N[C@@H](Cc1ccc(O)cc1)C(=O)N[C@H](C(=O)N[C@@H](CO)C(=O)N[C@@H](CC(C)C)C(=O)N[C@@H](CCCNC(=N)N)C(=O)N[C@@H](Cc1c[nH]cn1)C(=O)N[C@@H](Cc1ccc(O)cc1)C(=O)N[C@@H](Cc1ccc(O)cc1)C(=O)N[C@@H](CC(N)=O)C(=O)N[C@@H](Cc1c[nH]c2ccccc12)C(=O)N[C@@H](CC(C)C)C(=O)N[C@H](C(=O)N[C@@H](CCCNC(=N)N)C(=O)N[C@@H](CCC(N)=O)C(=O)N[C@@H](CCCNC(=N)N)C(=O)N[C@@H](Cc1ccc(O)cc1)C(N)=O)[C@@H](C)O)C(C)C

Target: T1, human NPY2 receptor
Assay: RLB: displacement of 125I-PYY(1-36) from hNPY2R membranes

| Binder | Ki [nM] |
| --- | --- |
| B1 | 1.95 |
| B2 | 0.74 |
| B3 | 1.38 |
| B4 | 8.32 |
| B5 | 2.87 |
